# Source: the RNAGym collection of RNA variant scans (doi:10.1073/pnas.2313332121)
# This sample holds only a part of the variants without activity.
# B1: TPR 5TU (parent)
# chain: GGAUCUUCUCGAUCUAACAAAAAAGACAAAUCUGCCACAAAGCUUGAGAGCAUCUUCGGAUGCAGAGGCGGCAGCCUUCGGUGGCGCGAUAGCGCCAACGUUCUCAACUAUGACACGCAAAACGCGUGCUCCGUUGAAUGGAGUUUAUCAUG
# Variants of: B1
# Experiment: polymerase ribozyme fitness, log enrichment relative to wild type (log ratio); higher = more active; in vitro selection for triplet polymerase activity
# Method in brief: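 The heterodimeric triplet polymerase ribozyme's subunits were each mutagenized into PCR-built libraries and transcribed. Every library was selected once, in triplicate, by annealing with a biotinylated primer, the partner subunit and triplets, incubating frozen at −7 °C, gel-excising extended constructs, capturing on streptavidin beads and running RT-PCR. Input and output libraries were Illumina-sequenced, with genotypes kept only at ≥10 input reads and ≥1 read per output. Fitness, from inverse-variance-weighted replicate averages, is the base-2 logarithm of genotype enrichment over wild-type enrichment.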
row,Variant,polymerase ribozyme fitness (log ratio)
1,GGAUCUUCUCGAUCUAACAAAAAAGACAAAUCUGCCACAAAGCUUGAGAGCAUCUUUCGUUGCAGAGGCGGCAGCCUUCGGUGGCGCAAUAGCGCCAAAGUUCUCAACUAUGACACGCAAAACGCGUGCUCCGUUGAAUGGAGUUUAUCAUG [C57U G58C A60U G88A C99A],≤ -4.2
2,GGAUCUUCUCGAUCUAACAAAAAAGACAAAUCUGCCACAAAGCUUGAGAGCAUCUUUGGAUGCAGAGGCGGCAGCCUUCGGUGGCGUGAUAGCGCCAACGUUGUCAACUAUGACACGCAAAACGCGUGCUCCGUUGAAUGGAGUUUAUCAUG [C57U C87U C103G],-1.94
3,GGAUCUUCUCGAUCUAACAAAAAAGACAAAUCUGCCACAAAGCUUGAGAGCAUCUUUGGAUGCAGAGGCGGCAGCCUUCGGUGGCGCGAUAGCGACAACGUUCUCAACUAUUACACGCAAAACGCGUGCUCCGUUGAAUGGAGUUUAUCAAG [C57U C95A G112U U151A],-4.06
4,GGAUCUUCUCGAUCUAACAAAAAAGACAAAUCUGCCACAAAGCUUGAGAGCAUCUUUGGAUGCAGAGGCGGCAGCCUUCGGUGGCGCGAUAGCGUCAACGUUGUCAACUAUGACACGCAAAACGCGUGCUCCGUUGAAUGGAGUUUAUCAUG [C57U C95U C103G],-1.87
5,GGAUCUUCUCGAUCUAACAAAAAAGACAAAUCUGCCACAAAGCUUGAGAGCAUCUUUGGAUGCAGAGGCGGCAGCCUUCGGUGGCGUGAUAGCGCCAACGUUCUCAACUAUGACAUGUCAAACGCGUGCUCCGUUAAAUGGAGUUUAUCAUG [C57U C87U C116U C118U A119C G136A],0.419
6,GGAUCUUCUCGAUCUAACAAAAAAGACAAAUCUGCCACAAAGCUUGAGAGCAUCUUUGGAUGCAGAGGCGGCAGCCUUCGGUGGCGCGAUAGCGCGAACGUUCUCAACUAUGACACGCAAAACGCGUGCACCGUUGAAUGGAGUUUAUCAUG [C57U C96G U130A],-3.15
7,GGAUCUUCUCGAUCUAACAAAAAAGACAAAUCUGCCACAAAGCUUGAGAGCAUCUUUGGAUGCAGAGGCGGCAGCCUUCGGUGGCGCGAUAGAGCCAACGUUCUCAACUAUGACACGCAAAACGCCUGCUCCGUUGAAUGGAGUUUAUCAUG [C57U C93A G126C],-0.766
8,GGAUCUUCUCGAUCUAACAAAAAAGACAAAUCUGCCACAAAGCUUGAGAGCAUCUUUGGAUGCAGAGGCGGCAGCCUUCGGUGGCGCGAUAGAGCCAACGUUCUCAACUAUGACACGCAAAACGCGUGCUCCGUUGAAUGGAGUUUAUCAUG [C57U C93A],-1.61
9,GGAUCUUCUCGAUCUAACAAAAAAGACAAAUCUGCCACAAAGCUUGAGAGCAUCUUUGGAUGCAGAGGCGGCAGCCUUCGGUGGCGCGAUAGGGCCAACGUUCUCAACUAUGACACGCAAAACGCGUGCUCCGUUGAAUGGAGUUUAUCAUG [C57U C93G],-3.36
10,GGAUCUUCUCGAUCUAACAAAAAAGACAAAUCUGCCACAAAGCUUGAGAGCAUCUUUGGAUGCAGAGGCGGCAGCCUUCGGUGGCGCGAUAGCGACCACGUUCUCAACUAUGACACGCAAAAAGCGUGCUCCGUUGAAUGGAGUUUAUCAUG [C57U C95A A97C C123A],-0.924
11,GGAUCUUCUCGAUCUAACAAAAAAGACAAAUCUGCCACAAAGCUUGAGAGCAUCUUUGGAUGCAGAGGCGGCAGCCUUCGGUGGCGCGAUAGCGCCAACGUUCUCAACUAUGACAGGCAAAACCCGUGCUCCGUUGAAUGCAGUGUAUCAUG [C57U C116G G124C G141C U145G],≤ -4.2
12,GGAUCUUCUCGAUCUAACAAAAAAGACAAAUCUGCCACAAAGCUUGAGAGCAUCUUUGGAUGCAGAGGCGGCAGCCUUCGGUGGCGCGAUAGCGUCAACGUUCUCAACUAUGACACGCAAAACGCGUGCUCCGUUGAAUGGAGUUUAUCAUG [C57U C95U],-1.55
13,GGAUCUUCUCGAUCUAACAAAAAAGACAAAUCUGCCACAAAGCUUGAGAGCAUCUUUGGAUGCAGAGGCGGCAGCCUUCGGUGGCGCGAUAGCGGCAACGUUCUCAACUAUGACACGCAAAACGCGUGCUCCGUUGAAUGGAGUUUAUCAUG [C57U C95G],-2.96
14,GGAUCUUCUCGAUCUAACAAAAAAGACAAAUCUGCCACAAAGCUUGAGAGCAUCUUUGGAUGCAGAGGCGGCAGCCUUCGGUGGCGCGAUAGCGGCAACGUUCUCAACUAUGACACGCAAAACGCGCGCUCCGUUGAAGGGGGUUUAUCAUG [C57U C95G U127C U139G A142G],-4.04
15,GGAUCUUCUCGAUCUAACAAAAAAGACAAAUCUGCCACAAAGCUUGAGAGCAUCUUUGGAUGCAGAGGCGGCAGCCUUCGGUGGCGCGAUAGUGCCAACGUUCUCAACUAUGACCCGCAAAACGCGUGCUCCGUUGAAUGGCGUUUUUCAUG [C57U C93U A115C A142C A147U],≤ -4.2
16,GGAUCUUCUCGAUCUAACAAAAAAGACAAAUCUGCCACAAAGCUUGAGAGCAUCUUUGGAUGCAGAGGCGGCAGCCUUCGGUGGCGCGAUAGCGCCAACGUUCUGAACUAUGACACGCAAAACGCGUGCUCCGUUGAAUGGAGUUUAUCAUG [C57U C105G],-0.3
17,GGAUCUUCUCGAUCUAACAAAAAAGACAAAUCUGCCACAAAGCUUGAGAGCAUCUUUGGAUGCAGAGGCGGCAGCCUUCGGUGGCGCGAUAGCGCCAACGUUCUAAACUAUGACACGCAAAACGCGUGCUCCGUUGAAUGGAGUUUAUCAUG [C57U C105A],-0.73
18,GGAUCUUCUCGAUCUAACAAAAAAGACAAAUCUGCCACAAAGCUUGAGAGCAUCUUUGGAUGCAGAGGCGGCAGCCUUCGGUGGCGCGAUAGCGCCAACGUUCUCAACUAUGAGACGCAAAACGCGUGCUCCGUUGAAUGGAGUUUAUCAUG [C57U C114G],-2.73
19,GGAUCUUCUCGAUCUAACAAAAAAGACAAAUCUGCCACAAAGCUUGAGAGCAUCUUUGGAUGCAGAGGCGGCAGCCUUCGGUGGCGCGAUAGCGCCAACGUUCUCAACUAUGACAGGCAAAACGCGUGCUCCGUUGAAUGGAGUUUAUCAUG [C57U C116G],0.474
